By Kd is commonly meant a measure of binding affinity in units of concentration. A low value points to tighter binding.

The assay has as its target PP1α catalytic subunit (New England BioLabs) (UniProt P62139 1-330). As to the kind of experiment: SPR. (SPR reads the build-up and loss of mass on a sensor chip optically.)

Ends that are not written are not given here.

Sequence of PP1α catalytic subunit (New England BioLabs) (P62139 whole entry): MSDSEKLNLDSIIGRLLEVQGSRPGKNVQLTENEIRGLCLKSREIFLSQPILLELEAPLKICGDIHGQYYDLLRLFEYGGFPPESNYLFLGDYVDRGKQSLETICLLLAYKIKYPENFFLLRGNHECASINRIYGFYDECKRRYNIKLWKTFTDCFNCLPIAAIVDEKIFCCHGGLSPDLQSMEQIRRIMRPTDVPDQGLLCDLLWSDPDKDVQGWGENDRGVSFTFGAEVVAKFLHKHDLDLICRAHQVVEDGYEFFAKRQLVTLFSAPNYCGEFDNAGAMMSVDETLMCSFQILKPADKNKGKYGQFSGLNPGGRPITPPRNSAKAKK

Take AERQKEKASMLCAKRAKAAAKALKP (also: biotinylated, position not given here) [Biotinylated AKAP79 synthetic peptide, amino acids 25-49, mutant (AxxAxA)]: the Kd stood at 341 nM. This lies in the sub-micromolar range.

For the origin of these results see paper PMC3115558 (Biochemistry, 2011).
